According to PMC3782427, “The N-Terminal Region of the Human Autophagy Protein ATG16L1 Contains a Domain That Folds into a Helical Structure Consistent with Formation of a Coiled-Coil” (PLoS ONE, 2013):

Target: the molecule itself
Assay: native gel or EMSA; Native-PAGE, Novex 4-20% Tris-glycine native gel, 1 ug protein a lane, before and after freeze/thawing at -80 C

B1: human ATG16L1 coiled-coil domain construct 3 (CCD3-FLAG-6His), residues M126-A207 (domain or fragment, UniProt Q676U5-1 126-207, looked up)
chain: MNEAKIAECLQTISDLETECLDLRTKLCDLERANQTLKDEYDALQITFTALEGKLRKTTEENQELVTRWMAEKAQEANRLNA
notes: human ATG16L1 isoform 1 (NP_110430.5, full length M1-Y607), coiled-coil domain, residues M126-A207; amplified from pCMV-FLAG-ATG16L1; Expressed as GST-CCD3-FLAG-6His with a TEV site between GST and the insert; Calculated molecular weight printed as 11.3 kDa; also called CCD3FH; minimal coiled-coil domain; source: E. coli Rosetta 2, purified (glutathione sepharose, on column TEV cleavage, HIC); …
- stoichiometry N: 2
